Reference: article PMC9768791 (2022)
Each block holds one binder with its values, some of them ahead of it.

Experiments:
Assay in all cases: activation reporter or marker
[1] = target: T1, CEBPZp.S100F peptide on HLA-A*24:02 (human)
T1 peptide: KYTKAFLV

[2] = target: T2, PPP5Cp.E428K peptide on HLA-A*24:02 (human)
T2 peptide: DYIIRSHKV

[3] = target: T3, SVILp.E1748D peptide on HLA-A*02:01 (human)
T3 peptide: RQFDITSVSV

[4] = target: T4, UGGT2p.L880V peptide on HLA-C*12:02 (human)
T4 peptide: FVGPLDEDF

[5] = target: T5, GPSM2p.D77A peptide on HLA-C*03:03 (human)
T5 peptide: YLHAYAKAL

[6] = target: T6, TENM4p.E1133D peptide on HLA-C*05:01 (human)
T6 peptide: LSDAFVSV

[7] = target: T7, PDS5Bp.L203V peptide on HLA-A*02:01 (human)
T7 peptide: LLDTVLVNV

[8] = target: T8, PREPp.G384A peptide on HLA-B*35:01 (human)
T8 peptide: FPLDVGSIVAY

[9] = target: T9, ICKp.P591T peptide on HLA-C*12:02 (human)
T9 peptide: RTHPGRPFF

[10] = target: T10, ICKp.P591T peptide on HLA-B*39:01 (human)
T10 peptide: MRTHPGRPFF

[11] = target: T11, CLSTN1p.L289M peptide on HLA-C*03:03 (human)
T11 peptide: LAVFPNIHM

[12] = target: T12, CLSTN1p.L289M peptide on HLA-B*35:01 (human)
T12 peptide: FPNIHMETC

[13] = target: T13, GALNT2p.L14R peptide on HLA-B*35:01 (human)
T13 peptide: FAFRWVLGIAY

[14] = target: T14, UAP1p.H469Y peptide on HLA-A*02:01 (human)
T14 peptide: ITADVNYNL

[15] = target: T15, VPS13Bp.G2602E peptide on HLA-A*02:01 (human)
T15 peptide: FVNLEQHVV

[16] = target: T16, MTHFRp.R238H peptide on HLA-B*40:01 (human)
T16 peptide: FEADTFFHFV

binding result [1]: recognises
B1: TCR445 (TCR, V domains shown)
Valpha: AQTVTQSQPEMSVQEAETVTLSCTYDTSESDYYLFWYKQPPSRQMILVIRQEAYKQQNATENRFSVNFQKAAKSFSLKISDSQLGDAAMYFCASSRWGGSEKLVFGKGTKLTVNP
Vbeta: DSGVTQTPKHLITATGQRVTLRCSPRSGDLSVYWYQQSLDQGLQFLIQYYNGEERAKGNILERFSAQQFPDLHSELNLSSLELGDSALYFCASSDSRTGGTDTQYFGPGTRLTVL

binding result [2]: recognises
B2: TCR536 (TCR, V domains shown)
Valpha: AQSVAQPEDQVNVAEGNPLTVKCTYSVSGNPYLFWYVQYPNRGLQFLLKYITGDNLVKGSYGFEAEFNKSQTSFHLKKPSALVSDSALYFCAVSPLTSGTYKYIFGTGTRLKVLA
Vbeta: SQTIHQWPATLVQPVGSPLSLECTVEGTSNPNLYWYRQAAGRGLQLLFYSVGIGQISSEVPQNLSASRPQDRQFILSSKKLLLSDSGFYLCAWSEGDETQYFGPGTRLLVL

binding result [3]: recognises
B3: TCR441 (TCR, V domains shown)
Valpha: ILNVEQSPQSLHVQEGDSTNFTCSFPSSNFYALHWYRWETAKSPEALFVMTLNGDEKKKGRISATLNTKEGYSYLYIKGSQPEDSATYLCAPSKYNNNDMRFGAGTRLTVKP
Vbeta: DAGITQSPRHKVTETGTPVTLRCHQTENHRYMYWYRQDPGHGLRLIHYSYGVKDTDKGEVSDGYSVSRSKTEDFLLTLESATSSQTSVYFCAISGTEDGELFFGEGSRLTVL

binding result [4]: recognises
B4: TCR682 (TCR, V domains shown)
Valpha: AQSVTQPDIHITVSEGASLELRCNYSYGATPYLFWYVQSPGQGLQLLLKYFSGDTLVQGIKGFEAEFKRSQSSFNLRKPSVHWSDAAEYFCAVAPDNYGQNFVFGPGTRLSVLP
Vbeta: DAMVIQNPRYQVTQFGKPVTLSCSQTLNHNVMYWYQQKSSQAPKLLFHYYDKDFNNEADTPDNFQSRRPNTSFCFLDIRSPGLGDAAMYLCATYSSGANVLTFGAGSRLTVL

binding result [5]: recognises
B5: TCR538 (TCR, V domains shown)
Valpha: ILNVEQSPQSLHVQEGDSTNFTCSFPSSNFYALHWYRWETAKSPEALFVMTLNGDEKKKGRISATLNTKEGYSYLYIKGSQPEDSATYLCAFDNYGQNFVFGPGTRLSVLP
Vbeta: DVKVTQSSRYLVKRTGEKVFLECVQDMDHENMFWYRQDPGLGLRLIYFSYDVKMKEKGDIPEGYSVSREKKERFSLILESASTNQTSMYLCASSLTGSFNEQFFGPGTRLTVL

binding result [6]: recognises
B6: TCR707 (TCR, V domains shown)
Valpha: QKEVEQNSGPLSVPEGAIASLNCTYSDRGSQSFFWYRQYSGKSPELIMSIYSNGDKEDGRFTAQLNKASQYVSLLIRDSQPSDSATYLCAVNVFNKFYFGSGTKLNVKP
Vbeta: DAGVIQSPRHEVTEMGQEVTLRCKPISGHDYLFWYRQTMMRGLELLIYFNNNVPIDDSGMPEDRFSAKMPNASFSTLKIQPSEPRDSAVYFCASSFLITDTQYFGPGTRLTVL

binding result [7]: recognises
B7: TCR447 (TCR, V domains shown)
Valpha: EDQVTQSPEALRLQEGESSSLNCSYTVSGLRGLFWYRQDPGKGPEFLFTLYSAGEEKEKERLKATLTKKESFLHITAPKPEDSATYLCAVHHLNRDDKIIFGKGTRLHILP
Vbeta: DSGVTQTPKHLITATGQRVTLRCSPRSGDLSVYWYQQSLDQGLQFLIQYYNGEERAKGNILERFSAQQFPDLHSELNLSSLELGDSALYFCASSADLGTREQYFGPGTRLTVT

binding result [8]: recognises
B8: TCR692 (TCR, V domains shown)
Valpha: GEDVEQSLFLSVREGDSSVINCTYTDSSSTYLYWYKQEPGAGLQLLTYIFSNMDMKQDQRLTVLLNKKDKHLSLRIADTQTGDSAIYFCAERNGGATNKLIFGTGTLLAVQP
Vbeta: DTEVTQTPKHLVMGMTNKKSLKCEQHMGHRAMYWYKQKAKKPPELMFVYSYEKLSINESVPSRFSPECPNSSLLNLHLHALQPEDSALYLCASSQDRTGAYSPLHFGNGTRLTVT

binding result [9]: recognises
B9: TCR689 (TCR, V domains shown)
Valpha: GIQVEQSPPDLILQEGANSTLRCNFSDSVNNLQWFHQNPWGQLINLFYIPSGTKQNGRLSATTVATERYSLLYISSSQTTDSGVYFCAVVLSYNTDKLIFGTGTRLQVFP
Vbeta: DVKVTQSSRYLVKRTGEKVFLECVQDMDHENMFWYRQDPGLGLRLIYFSYDVKMKEKGDIPEGYSVSREKKERFSLILESASTNQTSMYLCASSLSPPGYLETQYFGPGTRLLVL

binding result [10]: recognises
B10: TCR687 (TCR, V domains shown)
Valpha: AQSVTQLGSHVSVSEGALVLLRCNYSSSVPPYLFWYVQYPNQGLQLLLKYTSAATLVKGINGFEAEFKKSETSFHLTKPSAHMSDAAEYFCAVTDSNYQLIWGAGTKLIIKP
Vbeta: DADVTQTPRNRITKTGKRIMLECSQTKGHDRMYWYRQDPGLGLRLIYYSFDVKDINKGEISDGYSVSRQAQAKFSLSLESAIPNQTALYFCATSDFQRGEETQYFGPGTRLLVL

binding result [11]: recognises
B11: TCR696 (TCR, V domains shown)
Valpha: AQSVTQLDSHVSVSEGTPVLLRCNYSSSYSPSLFWYVQHPNKGLQLLLKYTSAATLVKGINGFEAEFKKSETSFHLTKPSAHMSDAAEYFCVVSAPDTGRRALTFGSGTRLQVQP
Vbeta: GAGVSQSPSNKVTEKGKDVELRCDPISGHTALYWYRQSLGQGLEFLIYFQGNSAPDKSGLPSDRFSAERTGGSVSTLTIQRTQQEDSAVYLCASSSGQGFTDTQYFGPGTRLTVL

binding result [12]: recognises
B12: TCR691 (TCR, V domains shown)
Valpha: GQSLEQPSEVTAVEGAIVQINCTYQTSGFYGLSWYQQHDGGAPTFLSYNALDGLEETGRFSSFLSRSDSYGYLLLQELQMKDSASYFCAVQAGTALIFGKGTTLSVSS
Vbeta: DTEVTQTPKHLVMGMTNKKSLKCEQHMGHRAMYWYKQKAKKPPELMFVYSYEKLSINESVPSRFSPECPNSSLLNLHLHALQPEDSALYLCASSQPGGGNTEAFFGQGTRLTVV

binding result [13]: recognises
B13: TCR802 (TCR, V domains shown)
Valpha: AQSVSQHNHHVILSEAASLELGCNYSYGGTVNLFWYVQYPGQHLQLLLKYFSGDPLVKGIKGFEAEFIKSKFSFNLRKPSVQWSDTAEYFCAVNLLTDSWGKFQFGAGTQVVVTP
Vbeta: EPEVTQTPSHQVTQMGQEVILRCVPISNHLYFYWYRQILGQKVEFLVSFYNNEISEKSEIFDDQFSVERPDGSNFTLKIRSTKLEDSAMYFCATMGSGGNEQFFGPGTRLTVL

binding result [14]: recognises
B14: TCR798 (TCR, V domains shown)
Valpha: AQSVTQLDSQVPVFEEAPVELRCNYSSSVSVYLFWYVQYPNQGLQLLLKYLSGSTLVKGINGFEAEFNKSQTSFHLRKPSVHISDTAEYFCAVSYSGSARQLTFGSGTQLTVLP
Vbeta: DAGVIQSPRHEVTEMGQEVTLRCKPISGHNSLFWYRQTMMRGLELLIYFNNNVPIDDSGMPEDRFSAKMPNASFSTLKIQPSEPRDSAVYFCASNPGGRGEKLFFGSGTQLSVL

binding result [15]: recognises
B15: TCR535 (TCR, V domains shown)
Valpha: AQKVTQAQTEISVVEKEDVTLDCVYETRDTTYYLFWYKQPPSGELVFLIRRNSFDEQNEISGRYSWNFQKSTSSFNFTITASQVVDSAVYFCALSTSMDSNYQLIWGAGTKLIIKP
Vbeta: EPEVTQTPSHQVTQMGQEVILRCVPISNHLYFYWYRQILGQKVEFLVSFYNNEISEKSEIFDDQFSVERPDGSNFTLKIRSTKLEDSAMYFCASSCWDRSTDTQYFGPGTRLTVL

binding result [16]: recognises
B16: TCR814 (TCR, V domains shown)
Valpha: TQLLEQSPQFLSIQEGENLTVYCNSSSVFSSLQWYRQEPGEGPVLLVTVVTGGEVKKLKRLTFQFGDARKDSSLHITAAQPGDTGLYLCAGLLGDSGAGSYQLTFGKGTKLSVIP
Vbeta: DAGITQSPRHKVTETGTPVTLRCHQTENHRYMYWYRQDPGHGLRLIHYSYGVKDTDKGEVSDGYSVSRSKTEDFLLTLESATSSQTSVYFCAISESWMSSYNEQFFGPGTRLTVL
